Data: the nanobody polyreactivity screen of Harvey et al. (2022)

assay: yeast display, Sf9 membrane polyspecificity reagent, FACS + sequencing; frameworks hold sequencing errors
In short: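 Galactose induction of a Saccharomyces cerevisiae BJ5465 synthetic nanobody display library ran 36–48 hours. The cells were then stained for 1 hour at 4 °C with 10% biotinylated, detergent-solubilized Sf9 membrane reagent, pulled down on streptavidin microbeads and FACS-sorted into low and high (top ~1%) gates on expression and reagent-binding fluorescence. Labels for polyreactivity follow the gate of origin.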

Sequence	polyreactivity (PSR sort gate)
QVQLQECGGGLVQAGGSLRLSCAARGNIFDADIMGWYRQAPGKESELLASVTDGGSTNYADSVKGRFTISRDNAKNTVYLQMNSLKPEDSAVYYCAAIVYPDILTYFDYDYDYFYWGQGTQVTVGS	low polyreactivity
QVQLQESGRRPGAAGGSPRMSCAASGNIFWVAVMGRYRQAPGKERELVASIGFGCTTYYADSVKCRFTISRDNAKNTVYLQMISLKPEDTAVYYCAAPHYDWGEIDYWGQGTQVPVSS	low polyreactivity
QVQLVESGGGVVQPGGSLSLSCAGSGITFWYYDLVWSRQAPGKERELVATITSSGSTYYADSVKGRFTISRDNAKNTVYLQKNSLKPEDTAVYFCAPQYGYSYYSGRYGYWGQGTQVTVSS	high polyreactivity
QVQLVESGGGLVQAGGSLRLSCAASGRTFPIYAMGWYRQARGKERELVAAITYSGGSTYYADSVKGRFTISRDNAKNTDYLQMNSQKPEDTAVYYCAVDGTKPYWHQRYDYWGQGTQVTGSS	low polyreactivity
QVQLQESGGGLVQAGGSLRPSCAASGSISDGVRMGWYRQAPGEEGELVATTVLGATTNYADSVKGRFTISRGNAKNTVYLLMTSLKAEATAVYYCAAPLRYDKGFSYWGQGTQVTVSS	low polyreactivity
QVQLVESCGGLVQAGGSLRLSCAGSGITIYSYAMGWYRQAPGKERELVAAITLTGGTTYYADSVKGRFTISRDNAKNTVYLQMNSLKPEDTAVYYCNADYGGGVDGTYKYYSEYDYWGQGTQVTVSS	low polyreactivity
QVQLVESGGGLVQAGGSLRFSCAASGTFVPYAMGWYRQAPGKEMELVARITWRGGSTYYADSVKGRFTISRDNAKNTVYLQMNSLKPEDTAVYYCATVSDNRYYYWGQGTQVTVSS	low polyreactivity
QVQLVESGGGLVQAGGSLRLSCAASGRTFRRNAMGWYRQAPGKEWELVAAISKSGGRTYYADSVKGRFTISRDNAKNTVYLQMNSLKPEDTAVYYCAARGYGYIPDNGDYDYWGQGTQVTVSS	high polyreactivity
QDQHVESGGGLVQAGGSLRLSCAASGSTFAFYAMGWYRQAPGKERELVAAINYGGTSTYYADSVKGRFTISRDNAKNTVYLQMNSLKPEDTAVYYCAARRPTSPRRYESWGQGTQVTVSS	high polyreactivity
QVHLVESGGGLVQARGTRRLSCAASGYTFPRYTMGWYRQAPGKERELVAAISGSSGSTYYADSVTGRFTISRDNATNTVYLQLNSLKPEDTAVYYCNKYYGFHKIKEYDYWGQGTQGTVSS	high polyreactivity
QVQLVESGGGLVQAGGSLRLSCAASGFIFHVYAMGWYRQAPGKEREFVAGISWRGGRTYYADSVKGRFTISRDNAKNTVYLLMNSLKPEDTAVYYCAALGLNAGGKFDYWGQGTQVTVSS	high polyreactivity
QVQLVESGGGLVQAGGSLRLSCAASGGTFSKYAMGWYRQAPGKERELVAAITYSSGSKYYADSVKGRFTISRDNAKNTVYLQMNSLKPEDTADYYCAARSGLYWWRFDYWGQGTQVTVSS	high polyreactivity
QDQLVESGGGLVQAGGSLRLSCAASGRTFLRNAMGWYRQAPGKERELVAAISRSGGSTYYADSVKGRVTISRDNAKNTVYLQMNSLKPEDTAVYYCAADDYGGYYYWGQGTQVTVSS	high polyreactivity
QVQLGESGGGLVQAGGSLRLTCAASGIIFPYYAMGWYRQATGKERELVAGISSSGGITYADSVKGRFTISRDNGKNTVYLQMNSLKPEDTAVYYCNAEYQWLEYDYCGQGTQVTVSS	low polyreactivity
QVQLVESVGGLVQAGGSLRLSCAASGRTFAGNAMGWYRQAPGKEREFVASITASGVNTYYADSVKGRFTISRDNAKNTVYLQMNSLKPEDTAVYYCNKRNRWTPFYTYDYWGQGTQVTVSS	low polyreactivity
QVQLVESGGGLVQAGGSLRLSCAASGSTFTTYAMGWYRQAPGKERELVAAISTNGGRTFYADSVKGRFTISRDNAKNTVYLQMISLKPEDTAVYYCAAEYGLYAPGYYYWGQGTQVTVSS	low polyreactivity

Sequence	polyreactivity (PSR sort gate)
QVQHVDSGGGLDHAGGSLRLSCAASGSIFAGYAMGWYRQAPAKERELDAAISSTGGRTYYADSVKGRFTISRDNAKTSVYLQMNSLKPEDTAVYYCGGAYYASYYYWGQGTQVTVSS	high polyreactivity
QVQLVESGGGLVQAGGRLRISCAASGSIFKGYARGWSRQAPGKERELVAAISGSGTSTYYADSVKGRFTISRDNAKNTVYLQMNSLKPEDTAVYYCATGWYTVFSSRMYSWGQGTQVTVSS	high polyreactivity
QVQLVESGGGLVQAGGSLRLSCAASGSIFGPNAMGWYRQAPGKESELVAAITLSGGSTYYADSVKGRFTISRDNAKNTVYLQMYSLKPEDTAVYYCNADLLPADAPLWVTGGDYWGQGTQVTVTS	low polyreactivity
QVQLVESGGGLVQAGGSLRLSCAASGITFGSYAMGWYRQAPGKEREFVAAISLSGGNTYYADSVKGRFTISRDNAKNTVYLQMNSRKPEDTAVYYCAADYDYSGYGYWGQGTQVTVSS	high polyreactivity
QVQLVESGGGLVQAGGSLRLSCAASGSTFDRYTMGWYRQAPGKERELVAAISISGGSTYYADSVKGRFTISRDNAKNTVYLQMNSLKPEDTEVYYCAARLDTVTDYYYWGQGTQVTVSS	low polyreactivity
QVQLVESGGGLVQAGGSLRLSCAASGSIFKTYAMGWYRQAPGKERELVAAISRSTSRTYYADSVKGRFTISRDNAKNTVYLQMNSLKPEDTAVYYCAAHRSTRGTKLYYWGQGTQVTVSS	high polyreactivity
QVQLVESGGGLVQAGGSLRLSCAASGFTFNRNAMGWYRQAPGKERFVAAITGSGASTYYADSVKGRFTISRDNAKNTVYLQMNSLKPEDTAVYYCNAEYYAGRYRYDYWGQGTQVTVSS	high polyreactivity
QVQLVDSGGGLVQAGGSLRLSCAASGSIFRYNAMGWYREAPGKERVLVAAISWNGARTYYADSVKGRFTISRDNAKNTVYLQMNSLKPEDTAVYYCNAGTFTRRRGLDYWGQGTQVTGSS	low polyreactivity
QVQLVESGGGLVQAGGSLRLSCAASGTFQRYAMGWYRQAPGKERELVAGISSAGDTNYADSVKGRFTISRDNAKNTVYLQMKSLKPEDTAVYYCNAAYFAGPADDKFDYWGQGTQVTVSS	low polyreactivity
QVQLVESVGGLVQAGGILRLSSAASGRIFYFYAMGWYRQAPGKERELVAGINWNGGSTHYADSVKGRFTISRDNAKNTVYLQMNSLKPEDTAVYYCAADGYYGQYGGHMGYWGQGTQVTVSS	high polyreactivity
QVQLVESGGGLVQAGGSLRLSCAASGFIFTRYAMGWYRQAPGKERELVAAISWSGGSTYYADSVKGRFTISRDNAKNTVYLQMNSLKPEDTAVYYCAADGSDSYDYWGQGTQVTVSS	low polyreactivity
QVQLVETGGGLVQAGGSLRLSCAASGSIFIYYAMGWYRQAPGKERELVAAIRLSSGSTYYADSVKGRFTISRDNSKNTVYLQMIRLKPEYTAVYYCAARRKRPFSVYDHWGKGTQVTVSS	high polyreactivity
QVQLVESGGGLVQAGGSLRLSCAASGRTIRRYAMGWYRQAPGKERELVAAITISGGSTYYADSVKGRFTISRDNAKNTVYLQMNSLKPEDTAVYYCAAQPWRALGYYYWGQGTQVTVSS	high polyreactivity
QVQLVESGGGLVQAGGSLRLSCAASGSTFWFNAMGWYRQAPGKERELVAISGSVGSTYADSVKGRFTISRDNAKNTVYLQMNSLKPEDTAVYYCNADSVWYRNPWSFSPRYNYWGQGTQVTVSS	low polyreactivity
QVQLGESGGGLVQAGVSLRLSCAASGSLFYHNAMGWYRHAPGKERELVAAISGRGGSTYYADSVKGRFTISRDNAKNTVYLQMNSLKPEDTAVYYCAADARYQNGGLYYWGQGTQVTVSS	high polyreactivity
QVQLVESGGGLFQAGGSLRLSCAASGLTFYVYAMGWYRQAPGKERELVAAITQNGGTTYYADSVKGRFTISRDNAKNTVYLQMNSLKPEDTAVYYCAAGNRSLGGRLYRYYYWGQGTLVTVSS	high polyreactivity
